Assay results taken from PMC8693861.

Experiments:
[1] = target: full-length N-terminal signaling domain of human Sonic hedgehog (ShhN), residues 24-193, without lipid attachments (UniProt Q15465); test: BLI; conditions: 4 μM SHH (per earlier reader's note; not printed in panel or legend); parent: est. 0.077; read off a plot
[2] = target: biotinylated human HHAT-Avi-1D4 (pHR-CMV-TetO2-HHAT-wildtype-Avi-1D4) (human) (UniProt Q5VTY9); test: BLI; SHH on immobilised biotinylated HHAT-Avi-1D4, 22°C, same buffer without nhPalm-CoA
[3] = target: biotinylated human HHAT-Avi-1D4 (pHR-CMV-TetO2-HHAT-wildtype-Avi-1D4) (human) (UniProt Q5VTY9); test: BLI; biotinylated HHAT-Avi-1D4 on streptavidin biosensors, 22°C, SHH in 10 mM HEPES pH 7.5, 150 mM NaCl, 0.06% DDM 40:1 CHS, 1 mM DTT, 5 mM CaCl2 with 5-10 mM nhPalm-CoA; multi-cycle kinetics, 300 s association and dissociation, 1:1.5 dilution series from 5 μM; one to two state binding model

Row | Substance | response [1] [nm] | fold reduction of binding without nhPalm-CoA against with nhPalm-CoA [2] [fold] | percent reduction of binding without Palm-CoA [2] [%] | Kd [3] [µM]
1 | biotinylated human HHAT-Avi-1D4 (pHR-CMV-TetO2-HHAT-wildtype-Avi-1D4) (from UniProt Q5VTY9) E59R | -0.012 |  |  | 
2 | biotinylated human HHAT-Avi-1D4 (pHR-CMV-TetO2-HHAT-wildtype-Avi-1D4) (from UniProt Q5VTY9) Y382A; Y384A | 0.011 |  |  | 
3 | full-length N-terminal signaling domain of human Sonic hedgehog (ShhN), residues 24-193, without lipid attachments (from UniProt Q15465 24-193) (domain or fragment) |  | 3 | 50 | 3.7
